According to US20260055179A1 (ALENTIS THERAPEUTICS, published 2026):

Target: T1, human Claudin-1 (CLDN1) (human, UniProt O95832 1-211)
T1 construct: whole, on cells; Transmembrane tight-junction protein, endogenously expressed on primary human cholangiocytes in the flow cytometry assay
T1 sequence (looked up): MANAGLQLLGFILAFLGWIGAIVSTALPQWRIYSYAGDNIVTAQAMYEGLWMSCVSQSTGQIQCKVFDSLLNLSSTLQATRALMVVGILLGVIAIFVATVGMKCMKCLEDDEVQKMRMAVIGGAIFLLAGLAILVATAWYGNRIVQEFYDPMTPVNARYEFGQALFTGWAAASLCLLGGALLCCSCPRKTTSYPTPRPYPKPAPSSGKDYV
Experiment: flow cytometry on primary human cholangiocytes (HBEpiC) after 10 ng/ml TNFalpha for 24 h; anti-human AF647 secondary antibody
Description: Primary human cholangiocytes were purchased from Innoprot, Bizkaia, Spain (Human Biliary Epithelial Cells, HBEpiC, ref. P10654; Batch #21614) and cultured on poly-1-lysine-coated surfaces according to manufacturer's instructions. Following stimulation, with 10 ng/ml TNFα for 24 hours, cells were harvested for assessment of CLDN1 expression by flow cytometry using anti-CLDN1 mAb H3L3 (Colpitts et al. 2018) and an anti-human AF647-conjugated secondary antibody.

B1: anti-CLDN1 mAb H3L3 (antibody, human IgG1, kappa, V domains shown)
VH: QVQLVESGGGVVQPGRSLRLSCLGSGFSFSSYGMNWVRQAPGKGLEWVASISPSGSYFYYADSVKGRFTISRDNSKNTLYLQMTSLRAEDTAIYYCARLPGFNPPFDHWGQGTLVTVSS
VL: DIQMTQSPSSLSASVGDRVTITCKASQNVGGNVDWYQWKPGKAPKLLIYGASNRYTGVPDRFRGSGSGTDFTLTISSLQPEDVATYYCLQYKNNPWTFGGGTKVEIKR
notes: Humanized anti-Claudin-1 monoclonal antibody; also called CLDN1 H3L3; CLDN1-specific H3L3 mAb
binding result: binds
